Assay results from doi:10.1101/218669.

Molecular target: Pragmin 906-1368 (Pragmin C) (Rattus norvegicus) (UniProt D3ZMK9)
Assay: MALLS + DLS + SAXS

Pragmin 906-1368 (Pragmin C) (from UniProt D3ZMK9 906-1368) (domain or fragment)
stoichiometry N: 2
